Measurements taken from US20060036083.

Target: human neutrophil peptide (HNP)-1
Sequence (chain, as listed by the source): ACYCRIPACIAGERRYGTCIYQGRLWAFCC

B1: recombinant ADP-ribosyltransferase (ART)-1 with a FLAG tag, cloned from a rabbit muscle cDNA library (protein)
chain: QSHLVTRRDLFSQETPLDMAPASFDDQYVGCAAAMTAALPHLNLTEFQVNKVYADGWALASSQWRERSAWGPEWGLSTTRLPPPPAGFRDEHGVALLAYTANSPLHKEFNAAVRQAGRSRAHYLQHFSFKTLHFLLTEALQLLGRDQRMPRCRQVFRGVHGLRFRPAGPGTTVRLGGFASASLKNVAAQQFGEDTFFGIWTCLGVPIQGYSFFPGEEEVLIPPFETFQVINASRPAQGPARIYLKALGKRSSYNCEYIKEMQCKSRPCHLDNS
ADP-ribosylation of HNP-1 by ART-1 with NAD+ (RP-HPLC, MALDI mass spectrometry): peptides with a mass of 3,983 daltons (retention time 46.5 minutes), consistent with mono-ADP-ribosyl-HNP (calculated mass equivalent to 3,983 daltons), were identified
